Results reported in article PMC8666670, “Malonyl-acyl carrier protein decarboxylase activity promotes fatty acid and cell envelope biosynthesis in Proteobacteria” (The Journal of Biological Chemistry, 2021).

Substrate: CC(=O)SCCNC(=O)CCNC(=O)[C@H](O)C(C)(C)COP(=O)(O)OP(=O)(O)OC[C@H]1O[C@@H](n2cnc3c(N)ncnc32)[C@H](O)[C@@H]1OP(=O)(O)O
Assay: radiochemical TLC acetyltransferase assay, one-site Hill fit
Type: biochemical, Escherichia coli
Details: 500 μM glucosamine-1-phosphate, 20 mM MgCl2, 37 °C, labelled compound

B1: GlmU (Escherichia coli K-12) (protein)
chain: MLNNAMSVVILAAGKGTRMYSDLPKVLHTLAGKAMVQHVIDAANELGAAHVHLVYGHGGDLLKQALKDDNLNWVLQAEQLGTGHAMQQAAPFFADDEDILMLYGDVPLISVETLQRLRDAKPQGGIGLLTVKLDDPTGYGRITRENGKVTGIVEHKDATDEQRQIQEINTGILIANGADMKRWLAKLTNNNAQGEYYITDIIALAYQEGREIVAVHPQRLSEVEGVNNRLQLSRLERVYQSEQAEKLLLAGVMLRDPARFDLRGTLTHGRDVEIDTNVIIEGNVTLGHRVKIGTGCVIKNSVIGDDCEISPYTVVEDANLAAACTIGPFARLRPGAELLEGAHVGNFVEMKKARLGKGSKAGHLTYLGDAEIGDNVNIGAGTITCNYDGANKFKTIIGDDVFVGSDTQLVAPVTVGKGATIAAGTTVTRNVGENALAISRVPQTQKEGWRRPVKKK
notes: full-length in pET28a, His-tag kept; expressed in E. coli BL21(DE3)
With B1 the Km was 400 µM.
